Reference: the supplement of paper PMC9732359
± gives the uncertainty stated by the source.

assay: protein stability index of a GFP-peptide fusion (yeast GPS) (PSI 1-4); higher = more stable; sorted into four equal gates, so the index is relative within each strain; settings: san1∆
Outline: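 The protein stability index of a peptide was calculated by multiplying its read frequency in each gate by that gate's number and adding the products. The peptides were tiled 17-residue stretches of yeast proteins, fused downstream of GFP on a Cherry-expressing plasmid and carried in yeast as a pooled library. Mid-log cultures in leucine-free medium were sorted into four equal gates by GFP/Cherry ratio, and each gate's plasmids were PCR-amplified and Illumina-sequenced.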

| Sequence | protein stability index |
| --- | --- |
| EELRKHAQKRVSNASAR [SKI6] | 3.01 ± 0.11 |
| EENGDSIKEHSTTMDGA [MED1] | 3.21 ± 0.14 |
| EENSSSNGNNLPLNKPR [RGR1] | 3.2 ± 0.041 |
| EEREAAASKVKLEEESK [RPC53] | 3.37 ± 0.069 |
| EESINEFKSIEIEMKNK [SMC4] | 3.31 ± 0.25 |
| EESWEKVVEFAITHMID [SCL1] | 3.06 ± 0.083 |
| EEVNRCYLRWQHLRNEH [SNF2] | 3.23 ± 0.071 |
| EEYDDDDDNSNVDYYNV [SNF2] | 2.93 ± 0.042 |
| EFDEQYGTRPLVLPPVV [SNF2] | 2.86 ± 0.061 |
| EFFHLQHYLDTATAPRL [QCR6] | 2.72 ± 0.058 |
| EFKSIEIEMKNKLEKLN [SMC4] | 1.42 ± 0.19 |
| EFLEDTSRTIVRNVKGP [RPS28A] | 3.15 ± 0.29 |
| EFLKWTPNVNVLVLHGD [ISW2] | 1.53 ± 0.12 |
| EFLPLSLHILMIFWNDI [SRB8] | 1.35 ± 0.062 |
| EFTENELNVDSMDVDDK [ITC1] | 3.31 ± 0.11 |
| EFTKINTPLVGAAFKVI [YJL039C/NUP192] | 1.6 ± 0.084 |
| EFVHKYLGEGPRMVRDV [RPT3] | 3.14 ± 0.062 |
| EGDFLKSIIGKLTAERA [POP1] | 2.1 ± 0.11 |
| EGHDWKAPTKLDDPEAV [DIS3] | 3.23 ± 0.041 |
| EGIKETQAKRIFLQQFL [SWI1] | 2.74 ± 0.086 |
| EGLNQRNQVQTENVAQA [YGR119C/NUP57] | 2.77 ± 0.095 |
| EGNEKLAAVPAAGPASA [RPP2A] | 2.17 ± 0.09 |
| EGSTIRYLAVTLQDIGF [YMR129W/POM152] | 2.52 ± 0.052 |
| EHEEKEKERETNKKGIK [RPN2] | 3.33 ± 0.16 |

| Sequence | protein stability index |
| --- | --- |
| EIDDFNDIDDLDMELAE [SEC65] | 2.89 ± 0.089 |
| EIDPLTGMPISNDPDVN [BRN1] | 2.87 ± 0.13 |
| EIDTILSTLRMEADPSL [RPN9] | 2.56 ± 0.13 |
| EIFIRCNNVLYIRELPN [SMX3] | 1.53 ± 0.12 |
| EINSEDYDNKTKLIGVL [SRP68] | 3.25 ± 0.076 |
| EINSEMCHIVRKFHELN [GRR1] | 2.85 ± 0.064 |
| EINYAFSMDEEFKNMDC [SIR3] | 3.22 ± 0.04 |
| EITDASLNLQYVNYEIS [YML103C/NUP188] | 2.31 ± 0.072 |
| EIYKQLNDRQEEISRLQ [YIL149C/MLP2] | 3.6 ± 0.041 |
| EIYRISFQLSKIRRAAR [RPS9A] | 2.3 ± 0.048 |
| EKDASGKPSFVFGASDK [YOR098C/NUP1] | 2.98 ± 0.076 |
| EKDAVSVFGFRTQFGGG [RPS24A] | 2 ± 0.14 |
| EKFSPKSFISKLLGIGD [SRP54] | 2.68 ± 0.2 |
| EKGENPSCVYNLIGVIT [UBP6] | 3.07 ± 0.081 |
| EKGSWEQLSPQDVLQML [BRR2] | 3.42 ± 0.12 |
| EKIRPLRSRSFKSTESN [YMR129W/POM152] | 2.87 ± 0.28 |
| EKKDSGSSKPAFSFGAK [YJL041W/NSP1] | 3.08 ± 0.073 |
| EKLLKELENNEFTENEL [ITC1] | 3.33 ± 0.069 |
| EKPDNSNHNNLNLNNSE [SNF2] | 3.15 ± 0.036 |
| EKRIQYAKDILQKEFLP [RPB2] | 2.06 ± 0.091 |
| EKRYDDKLLDFIRYDVK [CSN12] | 3.22 ± 0.046 |
| EKTLGKSLSKAISTGAK [RPN7] | 3.53 ± 0.12 |
| EKTMMTFGKPEEEDSIL [YCS4] | 3.35 ± 0.063 |
| ELDKREDMIDQVSKKLS [SMC3] | 2.93 ± 0.075 |

| Sequence | protein stability index |
| --- | --- |
| ELDPECQLQNSDNSEEE [RRP43] | 2.94 ± 0.054 |
| ELDRAAMNDKDLTMGQV [RPO21] | 2.8 ± 0.13 |
| ELEDVAVKKLYAIIINY [YCS4] | 1.59 ± 0.12 |
| ELENNEFTENELNVDSM [ITC1] | 3.33 ± 0.065 |
| ELENSSPELKAELRPLQ [RPS7A] | 2.97 ± 0.15 |
| ELESITESITHDSSNGL [NUT1] | 3.25 ± 0.051 |
| ELFDILSTSEDVSIEEL [IRR1] | 2.6 ± 0.21 |
| ELGEFFVNGVATSFSRK [FAS2] | 2.63 ± 0.1 |
| ELISLRKILESSNIVNE [YIL149C/MLP2] | 2.33 ± 0.064 |
| ELKKYMDKKILLNINGS [SMX2] | 2 ± 0.094 |
| ELLLTTLSVSHGINLQN [SSN2] | 1.76 ± 0.081 |
| ELLREWLETYSENRDKF [IRR1] | 3.61 ± 0.078 |
| ELLSMNIAPRLRLEDIF [RET1] | 2.35 ± 0.057 |
| ELQKSLSLEEVEGHLFE [FAS1] | 3.35 ± 0.061 |
| ELSFYILYSFKLSGKLL [YML103C/NUP188] | 1.49 ± 0.081 |
| ELTIIKNPRVTKEYLVQ [CSN9] | 3.15 ± 0.11 |
| EMKNIRGPYLVIVPLST [SNF2] | 1.44 ± 0.087 |
| EMSNKVLKVDKRFMNTS [BRR2] | 2.99 ± 0.038 |
| ENANAANNGAAFSPLTT [MED2] | 2.88 ± 0.1 |
| ENAYKSENAPSASSKEF [YAR002W/NUP60] | 2.15 ± 0.078 |
| ENCLNNDPEILKKIASI [SWI1] | 2.48 ± 0.1 |
| ENDIIKLSDSKTSNIES [BRR2] | 2.77 ± 0.19 |
| ENDTTLVKTKELIKNYI [FAS1] | 2.83 ± 0.13 |
| ENFAKGEHISAIVPGQS [SWP82] | 2.87 ± 0.06 |

| Sequence | protein stability index |
| --- | --- |
| ENGIEVELLDSNDRVNP [ITC1] | 3.29 ± 0.062 |
| ENGQRDLDRIAAQTLEE [RPS19A] | 3.28 ± 0.097 |
| ENISLAEFILKNRSTIF [BRR2] | 1.67 ± 0.11 |
| ENKTKKDNDKNLKFLKN [SRB4] | 3.28 ± 0.048 |
| ENLVVADLESFANNHFL [COR1] | 1.97 ± 0.14 |
| ENNDDALDLDLDLFDPD [MED4] | 2.79 ± 0.052 |
| EPAIEEENGDSIKEHST [MED1] | 3.23 ± 0.14 |
| EPIDQNTGIVSSTTGMS [RPT3] | 3.39 ± 0.14 |
| EPIEESSQNNSELAPIE [IRR1] | 2.73 ± 0.26 |
| EPIKLEPVKEYTFKTSM [YMR129W/POM152] | 1.99 ± 0.17 |
| EPPGSNTSFSFTKPPAN [YOR098C/NUP1] | 3 ± 0.039 |
| EPVKEYTFKTSMRVKPS [YMR129W/POM152] | 3.04 ± 0.13 |
| EQHEEKAAEGEEKEEEN [QCR6] | 2.98 ± 0.23 |
| EQIDENWSKEDLQKLLK [SWI3] | 3.02 ± 0.073 |
| EQQVKEAEMAYVKAVSD [SMC4] | 2.83 ± 0.08 |
| EQTRTILSVKLAELINM [SRB6] | 2.91 ± 0.24 |
| EQVKDDGTSTEKTFLHL [RPN8] | 3.42 ± 0.05 |
| ERAARVAAKIAALAGQQ [RPL5] | 2.57 ± 0.15 |
| ERDEQKRAEKKAKERLQ [SNF2] | 2.98 ± 0.13 |
| ERDTFSDFTFPEYYSTA [DIS3] | 2.15 ± 0.17 |
| EREQPQENKNIDDENIT [SRB4] | 3.07 ± 0.051 |
| ERTKNAQFIVISLRNNM [SMC4] | 1.33 ± 0.093 |
| ERVRLRPEQLSNIIHDE [SNF6] | 1.76 ± 0.083 |
| ERVRNFAVIYLCDIDEV [DIB1] | 1.04 ± 0.26 |

same assay, conditions: ubr1∆

| Sequence | protein stability index |
| --- | --- |
| EEKEESNLAATKSMVKI [RPN11] | 3.35 ± 0.098 |
| EEKPGLIITRKAFKNNS [SMC4] | 2.94 ± 0.079 |
| EELLAQYESQAPDGSAS [SWP82] | 3.08 ± 0.046 |
